{"source": "paper PMC9538160", "molecular_target": "Human recombinant p65 protein (SinoBiological 12054-H09E) (human) (UniProt Q04206)", "sequence (Q04206 whole entry, stated change not applied)": "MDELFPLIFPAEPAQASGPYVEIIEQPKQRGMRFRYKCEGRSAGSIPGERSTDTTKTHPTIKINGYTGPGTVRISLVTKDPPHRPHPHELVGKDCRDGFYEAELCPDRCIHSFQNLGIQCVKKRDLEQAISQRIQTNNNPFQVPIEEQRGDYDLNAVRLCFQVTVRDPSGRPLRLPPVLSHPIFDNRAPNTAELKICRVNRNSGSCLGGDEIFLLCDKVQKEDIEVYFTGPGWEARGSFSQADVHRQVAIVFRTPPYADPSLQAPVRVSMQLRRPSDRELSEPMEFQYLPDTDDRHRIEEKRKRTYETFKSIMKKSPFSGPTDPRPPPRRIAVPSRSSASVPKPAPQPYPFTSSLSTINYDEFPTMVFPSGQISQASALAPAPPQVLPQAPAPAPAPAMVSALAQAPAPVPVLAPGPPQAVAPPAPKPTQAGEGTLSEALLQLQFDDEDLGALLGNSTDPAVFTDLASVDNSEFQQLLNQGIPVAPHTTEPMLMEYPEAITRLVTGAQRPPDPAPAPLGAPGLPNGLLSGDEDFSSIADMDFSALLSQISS", "assay": "BLI; Forte-Bio Octet Red; anti-p65 Ab (5 μg/mL) captured on Protein A biosensors, 25 μg/mL recombinant p65 bound to it, ICP22 in solution at 62.5, 125, 250, 500 or 1000 nM; PBS", "data": [{"substance": "HA-tagged HSV-2 ICP22, purified (from UniProt P14379 1-197) (natural protein)", "values": [{"measurement": "Kd", "result": 0.218, "unit": "µM"}]}]}
